Patent publication US20050053993A1, “Uses of an endothelial cell receptor” (priority 2002, published 2005)

What was measured:
neutrophils = assay: Neutrophil migration; format: cell-based; settings: concentrations up to 1000-fold higher than for endothelial cell migration; data not shown
HT1080 = assay: Tumor cell proliferation, HT1080; format: cell-based, human; settings: HT1080, 72 hours
Description: (§1) Cell Proliferation Assay. The effect of rK5 and rK5 peptides on endothelial cells were assessed using a proliferation assay with 1% BSA and 3 ng/ml bFGF in serum-free media. Relative cell numbers in each well of a 96 well microplate after incubation for 72 hours in the absence or presence of inhibitors were determined by using the AQueous cell proliferation assay (Promega, San Luis Obispo, Calif.). For all other cell lines tested for proliferation, minimal growth media was used (Cao, Y., Ji, R., Davidson, D., Schaller, J., Marti, D., Sohndel, S., McCance, S., O'Reilly, M., Llinas, M., and Folkman, J. Kringle domains of human angiostatin. Characterization of the anti-proliferative activity on endothelial cells. (1996) J. Biol. Chem. 271, 29461-29467). Results are presented as the percent inhibition of control cell (bFGF-induced) proliferation.

[1] = tested on: tumor or primary cell proliferation; assay: Tumor or primary cell proliferation; format: cell-based; settings: at concentrations as high as 100 μM
Description: as §1

endothelial cells = assay: Binding of labeled K5 to endothelial cells (Scatchard); design: species or system human; settings: stimulated vs starved cells
Description: FIG. 10A is a graph showing the amount of surface expressed GRP78 on endothelial cells compared to rK5 binding. For all the assays in this figure, 50,000 cells were attached to 96 well plates. Human rK5 potency is highly dependent on the extent of iodination because it contains a readily iodinated tyrosine in its binding sequence. […] However dog K5 has a phenylalanine in this position naturally and is folded and active in these assays. Accordingly ^125IrK5 (dog) was used as a reagent. ^125IrK5 (dog) was added to the wells and incubated at room temperature for 1 hour. After 1 hour the cells were washed and the amount of I^125IrK5 (dog) bound was counted.
FIG. 11 is a graph comparing the binding of rK5 to starved, quiescent endothelial cells with that of endothelial cells stimulated by VEGF/bFGF. […] The number of counts remaining bound to the cells after extensive washing determined total amount of rK5 bound.
Binding of human ^125IrK5 to Endothelial Cells: Tritium-labeled rK5 was added to monolayers of 50,000 HMVEC cells that were either starved or stimulated for 16 hours by 15 ng/ml bFGF and 5 ng/ml VEGF in 96 well plates. […] After 1 hour the cells were washed and lysed with M-Per (Pierce, Racine, Wis.) and the amount of ^125IK5 (dog) bound was counted. […] Cells were washed and the amount of bound ^125IK5 (dog) bound was counted. […]

GRP78 (bovine brain) = biological target: T1, GRP78 (bovine brain) (Bos taurus, UniProt Q0VCX2); assay: Ultracentrifugation binding of I125rK5(dog) with GRP78; settings: 1 nM I125rK5(dog) + 1.5 nM GRP78; peptides 100 nM, rK5 1 nM
T1 construct: from tissue; host or cells: bovine brain
Description: Ultra centrifugation with 50,000 MW cut off filters was used with iodinated recombinant dog K5 (I^125rKS(dog)) and GRP78 (bovine brain). The GRP78 and I^125rK5 (dog) were incubated for 1 hour at room temperature. The solution was then transferred to ultracentrifuges and spun at 10,000×g for 2 min. The top chamber contained GRP78 (mw 78,000) and I^125rK5 (dog) that bound. The top and bottom solutions were counted for I125. Column A: 1 nM I^125rK5(dog). Column B: 1 nM I^125rK5 (dog)+1.5 nM GRP78. Column C: 1 nM I^125rK5(dog)+1.5 nM GRP78+100 nM N-terminal K5 peptide, LLPDVETPSEED. Column D: 1 nM I^125rK5(dog)+1.5 nM GRP78±100 nM active site K5 peptide PRKLYDY. Column E: 1 nM I^125rK5(dog)+1.5 nM GRP78+1 nM rK5 (unlabeled). The GRP78 bound to the labeled rK5 causing its retention on the top of the filter.

tumor cell lines = assay: Apoptosis of various tumor cell lines under hypoxia; format: cell-based; settings: 500 nM rK5, hypoxia overnight; exceptions Lewis Lung and PC-3
Description: FIG. 15B is a graph showing the effect of rK5 on induction of apoptosis in various tumor cell lines tested under hypoxic conditions. Cells were plated in 96-well plates overnight. Half the plates were put in hypoxic chambers overnight at 37° C. with and without 500 nM rK5. Increased apoptosis was shown by an ELISA technique that measures the number of nucleosome fragments. The apoptotic index was calculated from the apoptosis rate of control cells (without K5 and with or without hypoxia). The samples were run in quadruplicate.

[2] = tested on: bovine endothelial cell proliferation; settings: previously reported (Cao et al. 1996); read-out: IC50, inhibition of bovine endothelial cell proliferation; cited from earlier work

T1 sequence (Q0VCX2 20-655): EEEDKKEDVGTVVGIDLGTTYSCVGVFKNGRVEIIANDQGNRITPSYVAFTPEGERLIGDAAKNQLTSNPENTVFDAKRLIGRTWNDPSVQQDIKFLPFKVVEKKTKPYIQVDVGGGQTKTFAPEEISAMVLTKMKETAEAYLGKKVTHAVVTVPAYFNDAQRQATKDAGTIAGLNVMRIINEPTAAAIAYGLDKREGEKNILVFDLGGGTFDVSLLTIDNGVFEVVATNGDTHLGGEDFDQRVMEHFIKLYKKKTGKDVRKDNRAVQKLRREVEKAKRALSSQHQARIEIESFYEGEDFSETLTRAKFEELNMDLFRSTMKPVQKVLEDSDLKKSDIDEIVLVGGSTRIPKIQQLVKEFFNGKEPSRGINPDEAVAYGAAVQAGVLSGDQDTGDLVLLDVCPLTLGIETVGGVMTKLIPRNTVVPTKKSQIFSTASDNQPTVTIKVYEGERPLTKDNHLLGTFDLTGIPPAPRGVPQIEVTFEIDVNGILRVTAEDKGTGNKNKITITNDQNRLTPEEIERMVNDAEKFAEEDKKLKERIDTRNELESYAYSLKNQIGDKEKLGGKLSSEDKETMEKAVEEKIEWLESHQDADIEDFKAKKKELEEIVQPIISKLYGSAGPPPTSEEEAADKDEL

IC50 values for cell proliferation (HT1080): >100 µg/mL
inhibition of I125rK5(dog) binding to GRP78 (GRP78 (bovine brain)): inhibited
B1: rK5: recombinant kringle 5 fragment of human plasminogen (residues 450-543), expressed in E. coli or yeast (protein)
chain: LLPDVETPSEEDCMFGNGKGYRGKRATTVTGTPCQDWAAQEPHRHSIFTPETNPRAGLEKNYCRNPDGDVGGPWCYTTNPRKLYDYCDVPQCAA
inhibition of migration of neutrophils (neutrophils): failed to inhibit
inhibition of tumor or primary cell proliferation [1]: did not cause inhibition
binding to stimulated endothelial cells upregulated as compared to starved cells (endothelial cells): 4-10 fold
induction of apoptosis in tumor cell lines under hypoxic conditions (tumor cell lines): induced apoptosis in 8 out of 10 tumor cell lines
IC50 [2]: ~50 nM
